Results as given in patent US6528487B1, “Peptide inhibitors of inflammation mediated by selectins” (Centocor, Inc., priority 1991, dated 2003).
No end group written: not given here. *: point of attachment. Fmoc = O=C(OCC1c2ccccc2-c2ccccc21)*

Molecular target: T1, GMP-140 (Homo sapiens, UniProt P16109)
T1 construct: from tissue; host or cells: human platelets (outdated platelet packs from a blood bank)
T1 sequence (P16109 42-830): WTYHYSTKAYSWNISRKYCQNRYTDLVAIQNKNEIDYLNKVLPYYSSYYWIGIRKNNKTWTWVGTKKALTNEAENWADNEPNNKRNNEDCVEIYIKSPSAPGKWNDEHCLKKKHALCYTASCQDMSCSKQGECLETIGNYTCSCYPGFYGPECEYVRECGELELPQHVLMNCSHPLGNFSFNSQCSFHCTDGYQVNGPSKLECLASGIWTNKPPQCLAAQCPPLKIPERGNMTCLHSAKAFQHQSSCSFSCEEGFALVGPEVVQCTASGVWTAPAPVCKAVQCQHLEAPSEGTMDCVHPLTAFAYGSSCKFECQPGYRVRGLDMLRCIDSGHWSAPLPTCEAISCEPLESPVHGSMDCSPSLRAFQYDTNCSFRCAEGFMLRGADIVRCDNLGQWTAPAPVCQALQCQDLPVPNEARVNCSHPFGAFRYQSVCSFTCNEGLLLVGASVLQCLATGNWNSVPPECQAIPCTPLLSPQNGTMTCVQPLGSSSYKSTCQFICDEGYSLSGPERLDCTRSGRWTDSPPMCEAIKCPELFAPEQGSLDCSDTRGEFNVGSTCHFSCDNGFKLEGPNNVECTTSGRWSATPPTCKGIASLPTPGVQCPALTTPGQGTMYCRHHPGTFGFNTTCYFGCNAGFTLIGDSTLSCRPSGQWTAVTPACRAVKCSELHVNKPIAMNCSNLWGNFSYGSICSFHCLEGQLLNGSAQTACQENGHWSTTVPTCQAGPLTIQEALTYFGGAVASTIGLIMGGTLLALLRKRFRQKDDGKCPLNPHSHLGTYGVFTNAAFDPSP
Test: Inhibition of neutrophil binding to GMP-140 coated wells
Type: cell-based
Details: human neutrophils, immobilized GMP-140; for inhibition at 100 µM / inhibition at 500 µM / inhibition at 1000 µM: read-out: Percent inhibition of neutrophil binding to GMP-140
Description: Peptides can be screened for their ability to inhibit adhesion to cells, for example, neutrophil adhesion to purified GMP-140 immobilized on plastic wells, using the assay described by Geng, et al., Nature 343, 757-760 (1990).
Human neutrophils are isolated from heparinized whole blood by density gradient centrifugation on Mono-Poly resolving media, Flow laboratories. Neutrophil suspensions are greater than 98% pure and greater than 95% viable by trypan blue exclusion. For adhesion assays, neutrophils are suspended at a concentration of 2×10^6 cells/mL in Hanks' balanced salt solution containing 1.26 mM Ca^2+ and 0.81 mM Mg^2+ (HBSS, Gibco) with 5 mg/mL human serum albumin (HBSS/HSA). Adhesion assays are conducted in triplicate in 96-well microtiter plates, Corning, incubated at 4° C. overnight with 50 microliters of various protein solutions.
GMP-140 is isolated from human platelet lysates by immunoaffinity chromatography on antibody S12-Sepharose™ and ion-exchange chromatography on a Mono-Q™ column (FLPC, Pharmacia Fine Chemicals, as follows.
GMP-140 is plated at 5 micrograms/mL and the control proteins: human serum albumin (Alb), platelet glycoprotein Iib/IIIha (Iib), von Willebrand factor (vWF), fibrinogen (FIB), thrombomodulin™, gelatin (GEL) or human serum (HS), are added at 50 micrograms/mL. All wells are blocked for 2 h at 22° C. with 300 microliters HBSS containing 10 mg/mL HSA, then ashed three times with HBSS containing 0.1% Tween-20 and once with HBSS. Cells (2×10^5 per well are added to the wells and incubated at 22° C. for 20 min. The wells are then filled with HGSS/HSA, sealed with acetate tape (Dynatech), and centrifuged inverted at 150 g for 5 min. After discarding nonadherent cells and supemates, the contents of each well are solubilized with 200 microliters of 0.5% hexadecyltrimethylammonium bromide, Sigma, in 50 mM potassium phosphate, pH 6.0, and assayed for myeloperoxidase activity, Ley, et al., Blood 73, 1324-1330 (1989). The number of cells bound is derived from a standard curve of myeloperoxidase activity versus numbers of cells. Under all assay conditions, the cells release less than 5% of total myeloperoxidase and lactate dehydrogenase. Inhibition is read as a lower percent adhesion, so that a value of 5% means that 95% of the specific adhesion was inhibited.
Binding of various peptides to GMP-140 coated wells, as described above, were compared.
Binding of the peptides at various concentrations, ranging from 0.05 to 1 mM were compared.
A 5 μg/mL solution of GMP-140 in HBSS (buffer) is prepared. 50 μL is pipetted per well with the exception of three wells (A10 to A12) and the plate is stored overnight at 0° C. to 4° C. The liquids are removed by aspiration and 300 μL of 5 mg/mL human serum albumin (HSA)/HBSS is placed in the wells coated with GMP-140 plus the three non-coated wells to be used as control wells. The plate is allowed to incubate at room temperature for two hours. The HSA/HBSS solution is removed and the wells washed three times with 300 μL/well of HBSS. The third 300 μL wash of HBSS is left in each well and the plate is kept at room temperature until it is used.
Eight to ten mL of fresh human blood collected in heparinized tubes is carefully layered over 5 mL of the Mono-Poly Resolving Medium in 15 mL polypropylene centrifuge tubes. The tubes are centrifuged for 30 minutes at room temperature and 1400 to 1600 rpm. The tubes are rotated 180° and centrifuged for another 30 minutes under the same conditions. The top plasma layer and first cellular layer of leukocytes are drawn off. The second cellular layer of neutrophils is harvested (usually 2 to 3 mL per tube) and is placed in a clean 15 mL centrifuge tube. This is then underlayered with 1.5 mL of fresh resolving medium and spun at 2000 rpm for 15 minutes at room temperature. This is done to further purify the neutrophils from residual red blood cells. […]

Row | Substance | Percent inhibition of neutrophil binding to GMP-140 (peptide concentration 0.1 mM) [%] | Percent inhibition of neutrophil binding to GMP-140 (peptide concentration 0.5 mM) [%] | Percent inhibition of neutrophil binding to GMP-140 (peptide concentration 1.0 mM) [%] | inhibition at 100 µM (peptide concentration 0.1 mM) [%] | inhibition at 500 µM (peptide concentration 0.5 mM) [%] | inhibition at 1000 µM (peptide concentration 1.0 mM) [%]
1 | Tyr-Lys-Asn-Asn-Lys-Thr-Trp-Thr-Trp-Val-NH2 (YKNNKTWTWV-NH2) | 9 | 98 | 104 |  |  | 
2 | Arg-Glu-Asn-Asn-Lys-Thr-Trp-Thr-Trp-Val-NH2 (RENNKTWTWV-NH2) | 34 | 94 | 96 |  |  | 
3 | RKVNNVWVWV-NH2 [RKVNNVWVWV-NH2, Arginyl-lysyl-valyl-asparaginyl-asparaginyl-valyl-tryptophyl-valyl-tryptophyl-valine-amide] |  |  |  | 94 | 102 | 
4 | KWKWNRTNVT-NH2 [reference compound] | 0 | 0 | 0 |  |  | 
5 | Arg-Lys-Asn-Asn-Lys-Thr-Trp-NH2 (RKNNKTW-NH2) | 31 | 53 | 99 |  |  | 
6 | RKVNNVWVWV [RKVNNVWVWV, Arginyl-lysyl-valyl-asparaginyl-asparaginyl-valyl-tryptophyl-valyl-tryptophyl-valine] |  |  |  | 82 | 98 | 
7 | RKNNKTWTWV (Synthetic inhibitory peptide) [Arginyl-lysyl-asparaginyl-asparaginyl-lysyl-threonyl-tryptophyl-hreonyl-tryptophyl-valine] | 14 |  | 35 |  |  | 
8 | RKNNGTWTWV-NH2 [RKNNGTWTWV-NH2, Arginyl-lysyl-asparaginyl-asparaginyl-glycyl-threonyl-tryptophyl-threonyl-tryptophyl-valine-amide] |  |  |  | 46 | 99 | 99
9 | Arg-Lys-Val-Asn-Asn-Val-Trp-NH2 (RKVNNVW-NH2) |  |  | 17 |  |  | 
10 | RKNNKTWT-NH2 | 26 | 23 | 34 |  |  | 
11 | Cys-Arg-Lys-Asn-Asn-Lys-Thr-Trp-Thr-Trp-Val-NH2 (CRKNNKTWTWV-NH2) | 87 |  | 105 |  |  | 
12 | FMOC-Asn-Asn-Lys-Thr-Trp-NH2 (Fmoc-NNKTW-NH2; SMILES C[C@@H](O)[C@H](NC(=O)[C@H](CCCCN)NC(=O)[C@H](CC(N)=O)NC(=O)[C@H](CC(N)=O)NC(=O)OCC1c2ccccc2-c2ccccc21)C(=O)N[C@@H](Cc1c[nH]c2ccccc12)C(N)=O) | 85 | 100 | 99 |  |  | 
13 | Arg-Lys-Asn-Asn-Lys-Thr-Trp-Thr-Trp-Glu-NH2 (RKNNKTWTWE-NH2) | 17 | 20 |  |  |  | 
14 | Ac-Arg-Lys-Asn-Asn-Lys-Thr-Trp-Thr-Trp-Val-NH2 (Ac-RKNNKTWTWV-NH2) | 35 | 50 |  |  |  | 
15 | RKNNKTWTWVGTKKALTNEC-NH2 [Arginyl-lysyl-asparaginyl-asparaginyl-lysyl-threonyl-tryptophyl-threonyl-tryptophyl-valyl-glycyl-threonyl-lysyl-lysyl-alanyl-leucyl-threonyl-asparaginyl-glutamyl-cysteine-amide] |  |  |  | 9 |  | 47
16 | RKNNKTWTWV-NH2 [RKNNKTWTWV-NH2, Arginyl-lysyl-asparaginyl-asparaginyl-lysyl-threonyl-tryptophyl-threonyl-tryptophyl-valine-amide] | 14 | 30 |  | 13 | 20 | 
